This passage reports stoichiometry N (DEK molecules per nucleosome) results from PMC12263440.

Where “and” joins values, the source holds several entries; their conditions need not be identical. Identical values can stand only once.

The target of the assay is nucleosome containing the 193-bp Widom 601 DNA (24-bp linker DNAs at both ends) (human) (UniProt P04908). Briefly: mass photometry; 193-bp 601 nucleosome (1 µM) and DEK (2 µM) in 18 mM Tris-HCl pH 7.5, 60 mM NaCl, overnight at room temperature; diluted 1:40 for recording.

With “recombinant human DEK protein (wild type) (from UniProt P35659 1-375) (natural protein)”, the stoichiometry N (DEK molecules per nucleosome) was 1 and 2.
